{
  "source": "paper PMC9815098",
  "about": "(Acta Crystallographica. Section D, Structural Biology, 2023)",
  "target": "the molecule itself",
  "test": "SEC-MALS; RBP-CPN at 0.5, 1.0 and 5 mg ml^-1; Superdex 75 Increase 10/300 GL; 10 mM sodium phosphate pH 7.8, 50 mM sodium chloride, 0.02% sodium azide; room temperature; monomer to dimer",
  "data": [
    {"protein": "RBP-CPN (permuted N-terminal lobe of the ribose-binding protein from Thermotoga maritima) (domain or fragment, residue printed between position 263 and the HHHHHH tag; source: E. coli BL21 (DE3), purified (IMAC, SEC)) MKGKMAIVISTLNNPWFVVLAETAKQRAEQLGYEATIFDSQNDTAKESAHFDAIIAAGYDAIIFNPTDADGSIANVKRAKEAGIPVFCVDRGINARGLAVAQIYSDTSTQFPKLMARLAVEWADQYLRGG", "values": [
      {"measurement": "stoichiometry N", "result": 2}
    ]}
  ]
}
